Reference: patent publication US20140056918A1 (Novo Nordisk, published 2014)
Substitutions are numbered along the chain they refer to.

T1: Human OSCAR-ECD (recombinant extracellular domain of human OSCAR) (human, UniProt Q8IYS5 19-218)
T1 construct: also called OSACAR-ECD
T1 chain: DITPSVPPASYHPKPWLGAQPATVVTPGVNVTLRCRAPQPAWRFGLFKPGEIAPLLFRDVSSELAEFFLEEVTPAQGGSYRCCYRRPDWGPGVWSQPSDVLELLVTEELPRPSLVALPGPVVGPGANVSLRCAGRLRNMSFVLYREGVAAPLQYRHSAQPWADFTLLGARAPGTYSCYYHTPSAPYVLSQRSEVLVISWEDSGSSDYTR

T2: Human OSCAR (osteoclast-associated receptor), full length, on cells (human)
T2 chain: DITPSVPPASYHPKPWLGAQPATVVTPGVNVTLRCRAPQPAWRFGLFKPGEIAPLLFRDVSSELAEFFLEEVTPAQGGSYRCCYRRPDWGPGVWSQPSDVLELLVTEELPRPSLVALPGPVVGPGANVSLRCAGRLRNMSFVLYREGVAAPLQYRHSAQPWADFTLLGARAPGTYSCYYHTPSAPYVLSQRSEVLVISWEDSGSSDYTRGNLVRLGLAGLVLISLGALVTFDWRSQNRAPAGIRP

B1: 16F119 (antibody, V domains shown)
VH: QVQLVQSGAEVKKPGSSVKVSCKVSGGTFSNYAISWVRQAPGQGLEWMGRIIPILGIAAYAQRFRDRVTITADKFTSTVYMELSSLRSEDTAVYYCASGQLGTPYWYFDLWGRGTLVTVSS
VL: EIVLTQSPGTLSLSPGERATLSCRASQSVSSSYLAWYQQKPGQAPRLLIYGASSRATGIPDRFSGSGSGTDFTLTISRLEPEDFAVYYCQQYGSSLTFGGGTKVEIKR
notes: Fully human mAb from HuMab mice; also called 16F119 (Hu); 16F119A5
B2: 7F6A1 (antibody, V domains shown)
VH: DVKLVESGGGLVKPGGSLKLSCAASGFTFSSYVMSWVRQTPEKRLEWVATISSGGSYTYYPDSVKGRFTISRDNAKNTLYLQMSSLKSEDTAMYYCTREGGNSPDYWGQGTTLTVSS
VL: ENVLTQSPAIMSASPGEKVTMTCSVSSSISYMHWYRQKSFTSPQLWIYDTSKLASGVPGRFSGSGSGISYSLTISSMEAEDVATYYCFQGSEYPLTFGAGTKLELKR
notes: Mouse anti-human OSCAR mAb; The heavy chain entry covers only VH-CH1 and the start of the hinge
B3: 7F10A1 (antibody, V domains shown)
VH: QVQLQQSGAELARPGASVKLSCKASGYTFTDNYINWVKQRTGQGLEWIGEIYPGSGNTYYNEKFKGKATLTADKSSSTAYMQLSSLTSEDSAVYFCARSANRYDRGDFDYWGQGTPLTVSS
VL: QILLTQSPAIMSASPGEKVTMTCSASSSVSYMHWYQQKPGSSPKPWIYDTSNLASGFPARFSGSGSGTSYSLIISSMEAEDAATYYCHQRSSYPYTFGGGTKLEIKR
notes: as for B2
B4: 7F1A1 (antibody, V domains shown)
VH: QVQLQQSGAELVRPGTSVKVSCKASGYAFTNYMIEWVKKRPGQGLEWIGVINPGSGGTNYNEKFENKATLTADKSSSTAYMQLSSLTSDDSAVYFCARSLDFDGAWFAYWGQGTLVTVSA
VL: DIQMTQSPASLSVSVGETVTITCRASEKIYSNLAWYQQKQGKSPQLLVYAATNLADGVPSRFSGSGSGTQFSLKINSLQPEDFGSYYCQHFWGIPWTFGGGTKLEIKR
notes: as for B2
B5: 7F21A1 (antibody, V domains shown)
VH: QVQLQQSGAELVRPGTSVKVSCRSSGYAFTNYLIEWIKQRPGQGLEWIGVITPGSGGTNYNENFKDKATLTADKSSNTAYMQLTSLTSDDSAVYFCARSFDYDGAWFAYWGQGTLVTVSA
VL: B4 VL with S77N, P80S, I94T
notes: as for B2
B6: 16F56 (antibody, V domains shown)
VH: QVQLVQSGAEVKKPGSSVKVSCKASGGTFSNYAISWVRQAPGQGLEWMGRIIPILGIAHNAQKFQDRVTITADKSTSTAYMELSSLRSEDTAVYYCASPSSGKGLPYWFFDLWGRGTLVTVSS
VL: DIQMTQSPSFLSASVGDRVTITCRASQSISSYLNWYQQKPGKAPKLLIYAASSLQSGVPSRFSGSGSGTDFTLTISSLQPEDFATYYCQCGYSTPLTFGGGTKVEIKR
notes: Fully human mAb from HuMab mice; also called 16F56 (Hu); 16F56A2
B7: 7F14A1 (antibody, V domains shown)
VH: QVQLKESGPGLVAPSQSLSITCSVSGFSLTSYGVHWVRQPPGKGLEWLGVMWAGGSTNYNSALMSRLSISKDNSKSQVFLKMNSLQTDDSAMYYCALQKGYGNYFDYWGQGTTLTVSS
VL: QIVLTQSPAIMSASPGEKVTMTCSASSSVNYMHWYQQKSGTSPKRWIYDTSNLASGVPTRFSGSGSGTSYSLTISSMEAEDAATYYCQQWSSDPLTFGAGTKLELKR
notes: Mouse anti-human OSCAR mAb; also called 7F14A4
B8: 6F6B (antibody, V domains shown)
VH: EVQLQQSGAELVKPGASVKLSCTASGFNIKDTYVHWVKQRPDQGLEWIGRIDPAIGNTKYDPKFRGKATITADSSSNTAYLQLSSLTSEDTAVYYCARLSYGNYGLDYSMDYWGQGTSVTVSS
VL: DIVLTQSPATLSVTPGDSVSLSCRASQSITNNLHWYQQKSHESPRLLIKYASQSISGIPSRFRGSGSGTDFTLSINSVETEDFGVYFCQQSNTWPRTFGGGTKLEIKR
notes: Mouse anti-OSCAR mAb
B9: 6F3A (antibody, V domains shown)
VH: B8 VH
VL: B8 VL
notes: Mouse anti-OSCAR mAb

Target: T1, Human OSCAR-ECD (recombinant …)
Experiment: SPR (Biacore T100), mAb coupled or captured on chip, OSCAR-ECD injected, 1:1 fit
Experimental: The kinetic parameters (kₐ, kd and KD) for the interaction were calculated using a 1:1 interaction Langmuir fitting model.

Binder | Kd [nM]
B1 | 0.5
B2 | 2.7
B3 | 18
B4 | 2.7
B5 | 18
B6 | 0.3
B7 | 4.5

Target: T1, Human OSCAR-ECD (recombinant …)
Experiment: SPR competition, 50 nM OSCAR-ECD premixed with mAb, over immobilised collagen I
Experimental: (§1) The experiment was performed using a Biacore T 100 instrument (GE Healthcare). Human collagen 1 (Sigma, # C5483) and human collagen 2 (Millipore #CC052) were diluted with 10 mM NaOAc, pH 4.5 and immobilized on a Biacore CM3 sensor chip (GE Healthcare) using amine coupling chemistry (GE Healthcare). Immobilization was performed according to the standard procedure, but at 5° C. in order to prevent aggregation collagens, with immobilized levels of ca 250 RU on flow cells (FC) 2 and 4. A blank immobilization was performed on FC 1 & 3, which were used as reference cells. HBS-EP buffer (10 mM HEPES, 150 mM NaCl, 3 mM EDTA, 0.05% Polysorbat P20, pH7.4) was used as running buffer for the immobilization. Buffer containing HBS-EP/+0.1% BSA was used for the competition assay. The competition experiment was performed at 5° C. at a flow rate of 50 μl/min. […] OSCAR was mixed with various concentrations of anti-OSCAR antibodies ranging from 0-10 μg/ml prior to injection. Binding curves were measured for 360 s followed by 240 s of dissociation. The chip surface was regenerated for 2×20 s with 10 mM glycine, pH 2.0 between assays.
(§2) Human collagen I and II were immobilized to the surface of a Biacore sensor chip by amine coupling. […] It was hypothesized that an antibody inhibiting binding of OSCAR to collagen would lead to a concentration-dependent loss of signal, whereas a non-inhibiting antibody would enhance the signal due to the increased mass of the OSCAR-antibody complex.

Binder | binding of OSCAR-ECD to collagen I with 10 µg/mL mAb
B8 | 1.7
B9 | 9.5
B1 | -3.4
B2 | 19.2
B3 | 55
B4 | 145
B5 | 144
B6 | -3.2
B7 | 56.3

Target: T2, Human OSCAR (osteoclast-associated …)
Experiment: cell-based or functional assay

Binder | IC50 (IL-8), ColI-induced IL-8 release from moDC, Donor 4 [nM] | IC50 (IL-8), ColI-induced IL-8 release from moDC, Donor 5 [nM] | IC50 (IL-8), ColI-induced IL-8 release from moDC, Donor 6 [nM] | IC50 (IL-8), ColI-induced IL-8 release from moDC, Donor 3 [nM] | IC50 (IL-8), ColI-induced IL-8 release from moDC, Donor 1 [nM] | IC50 (IL-8), ColI-induced IL-8 release from moDC, Donor 2 [nM]
B8 | 0.86 | > 20 | 6.56 |  |  | 
B9 | 0.69 | > 20 | 8.06 |  |  | 
B1 | 0.02 | 0.46 | 1.12 |  |  | 
B2 |  | 2.49 | 1.28 | 0.91 |  | 
B3 | 2.06 |  |  | 1.59 | 0.49 | 
B4 | 0.03 |  |  | 0.1 | < 0.1 | < 0.1
B5 | 0.11 |  |  | 0.64 |  | 0.02
B6 | 0.06 | 0.1 | 0.21 |  |  | 
B7 |  |  |  | 0.62 | 0.23 | 

Target: T2, Human OSCAR (osteoclast-associated …)
Experiment: flow cytometry on primary human monocytes, donor #2
Experimental: (§3) Cell number and viability were determined using a Cedex cell counter. The cells were diluted in washing buffer (1×PBS (—Ca²⁺/—Mg²⁺)+5% FBS+0.1% Na-azide) to […]. In the case of monocytes, the cells were further blocked by adding 10 μl of a hFcR blocker (Miltenyi, #130-059-901) and incubated for 10 minutes at 4° C. 50 μl of cells (50.000 cells/well) were seeded into 96 well round-bottomed microtiter plates. Hybridoma supernatants or purified antibodies (in serial dilutions) were added to the cells at 50 μl/well. The isotype-matched purified irrelevant human mAb or mouse mAb served as negative controls (mouse IgG1, BD, #553452; mouse IgG2a, BD, #557353; mouse IgG2b, BD, #557352). […] Cells were washed in PBS, re-suspended in fixation buffer (1×PBS (—Ca²⁺/—Mg²⁺), pH7.2+1% formalin (B&B, #LAB96751.0500) and analysed by FACS flow cytometer. EC₅₀ values were calculated using a GraphPad Prism 5 software.

Binder | EC50 [nM]
B2 | 0.14
B3 | 0.12
B4 | 0.12
B5 | 0.01
B7 | 0.55

Target: T2, Human OSCAR (osteoclast-associated …)
Experiment: flow cytometry on primary human monocytes, donor #1
Experimental: as §3

Binder | EC50 [nM]
B2 | 3.48
B3 | 1.2
B4 | 1.21
B5 | 9.48
B7 | 2.47

Target: T1, Human OSCAR-ECD (recombinant …)
Experiment: SPR competition, 50 nM OSCAR-ECD premixed with mAb, over immobilised collagen II
Design: unit not given here
Experimental: as §1, §2

Binder | binding of OSCAR-ECD to collagen II with 10 µg/mL mAb
B8 | 1
B9 | 13.8
B1 | -1.5
B2 | 19.3
B3 | 102
B4 | 335
B5 | 319
B6 | -1.9
B7 | 83.6
